From patent publication US20100098761A1, “Polymer Compositions For Biomedical And Material Applications” (University of Massachusetts Medical School, priority 2007, published 2010) come the findings set out here.

For the test, the system named is murine macrophage RAW264.7 cells. As to the kind of experiment: Osteoclastic differentiation of RAW264.7 cells (TRAP stain). The format is cell-based. The protocol:
Grafts (5×5×1 mm, FlexBone 25% HA-25% TCP) were pre-absorbed with varying amounts of growth factors and cytokines to provide an exogenous supply for remodeling. […] The preferred loading dose of RANKL (10 ng/FlexBone graft) was determined by the osteoclastic differentiation of macrophage RAW264.7, induced by the RANKL released from the graft as indicated by positive TRAP stains (purple) of multinucleated cells on Day 6. […] Finally, the preferred loading dose of rhVEGF165 in stimulating the proliferation of human vascular endothelial cells in culture was determined to be 5 ng/graft.
Materials. The radical inhibitors in the commercial 2-hydroxyethyl methacrylate (HEMA, Aldrich) and ethylene glycol dimethacrylate (EGDMA, Aldrich) were removed via distillation under reduced pressure and by passing through a 4 Å molecular sieve column prior to use, respectively. […] In a typical procedure, 0-5.0 wt % TCH was dissolved in the mixture of freshly distilled monomer HEMA, 2% cross-linker EGDMA and viscous solvent ethylene glycol under bath-sonication, before 25 wt % HA, 25 wt % TCP, and the aqueous radical initiators ammonium persulfate and sodium metasulfite were added and thoroughly mixed (Table I). […] The compressive behavior of FlexBone in fully hydrated state as a function of TCH content was analyzed using a Q800 Dynamic Mechanical Analyzer (DMA, TA Instruments) equipped with a submersion compression fixture. […] An L-square was used to make sure that the sanded top and bottom surfaces were parallel prior to testing, and the final dimensions of each specimen were measured by a digital caliper. […] All stress-strain curves presented are based on the engineering stress and engineering strain recorded, assuming a fixed cross-section of the material defined at the start of the test. […] The release of TCH from FlexBone vs. pHEMA hydrogel in water as a function of time and the initial TCH incorporation was monitored over 1 week at 357.9 nm. […]

B1: rmRANKL: recombinant receptor activator of nuclear factor κB ligand, E. coli expressed (protein, UniProt O35235 139-316, looked up)
Tumor necrosis factor ligand …: FSGAPAMMEGSWLDVAQRGKPEAQPFAHLTINAASIPSGSHKVTLSSWYHDRGWAKISNMTLSNGKLRVNQDGFYYLYANICFRHHETSGSVPTDYLQLMVYVVKTSIKIPSSHNLMKGGSTKNWSGNSEFHFYSINVGGFFKLRAGEEISIQVSNPSLLDPDQDATYFGAFKVQDID
For B1, the osteoclast differentiation entry is “formation of TRAP-positive multinucleated osteoclasts” (continued supplement of 10-ng every other day, day six) and “not sufficient in inducing the osteoclast differentiation” (single supplement of 10-ng directly to culture). Also, the preferred loading dose (determined by osteoclastic differentiation of RAW264.7, TRAP stains Day 6) stood at 10 ng/FlexBone graft.
